Experimental data as given in patent US20240150422A1 (ONKO INNATE, published 2024).
Where a chain is given by its changes, count along the chain named. In names and notes the source's numbering stands.

T1: wild-type IL-12 heterodimeric Fc fusion protein (IgG1Fc(knob)-IL12p35 / IgG1Fc(hole)-IL12p40) (human, UniProt P29459 23-219; P29460 23-328)
T1 construct: also called wild-type IL-12 Fc; IL-12 Fc wt; not shown: human IgG1 Fc (knob) with artificial disulfide and N297G; human IgG1 Fc (hole) with artificial disulfide and N297G
T1 sequence 1: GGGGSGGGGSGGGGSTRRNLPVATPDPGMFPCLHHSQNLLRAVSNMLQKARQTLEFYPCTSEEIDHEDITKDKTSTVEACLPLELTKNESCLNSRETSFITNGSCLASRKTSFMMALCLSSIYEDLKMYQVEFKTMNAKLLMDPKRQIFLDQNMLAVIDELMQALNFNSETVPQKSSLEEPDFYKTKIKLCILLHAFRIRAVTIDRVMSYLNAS
T1 sequence 2: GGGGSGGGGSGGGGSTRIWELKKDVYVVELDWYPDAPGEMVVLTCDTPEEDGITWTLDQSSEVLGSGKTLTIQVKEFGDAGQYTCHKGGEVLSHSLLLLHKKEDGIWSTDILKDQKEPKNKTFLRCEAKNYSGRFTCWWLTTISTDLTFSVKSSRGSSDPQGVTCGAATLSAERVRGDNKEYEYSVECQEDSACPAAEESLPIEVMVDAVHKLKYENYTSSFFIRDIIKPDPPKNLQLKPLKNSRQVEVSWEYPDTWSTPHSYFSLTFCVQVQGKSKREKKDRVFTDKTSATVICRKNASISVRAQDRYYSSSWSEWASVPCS

B1: IL-12 Fc K170A mutant (Fc-C-terminal fusion format of Example 1) (Fc fusion, not shown: a dimerising Fc or GST)
chain 1: T1 sequence 1 with K187A
chain 2: T1 sequence 2
B2: truncated form of the IL-12Rβ2 extracellular region (domains 1-3) (receptor)
chain: KIDACKRGDVTVKPSHVILLGSTVNITCSLKPRQGCFHYSRRNKLILYKFDRRINFHHGHSLNSQVTGLPLGTTLFVCKLACINSDEIQICGAEIFVGVAPEQPQNLSCIQKGEQGTVACTWERGRDTHLYTEYTLQLSGPKNLTWQKQCKDIYCDYLDFGINLTPESPESNFTAKVTAVNSLGSSSSLPSTFTFLDIVRPLPPWDIRIKFQKASVSRCTLYWRDEGLVLLNRLRYRPSNSRLWNMVNVTKAKGRHDLLDLKPFTEYEFQISSKLHLYKGSWSDWSESLRAQTPEE
notes: also called interleukin 12 receptor beta 2
B3: IL-12 Fc single mutant K168A (Fc-C-terminal fusion format of Example 1) (Fc fusion)
chain 1: T1 sequence 1 with K185A
chain 2: T1 sequence 2
notes: not shown: human IgG1 Fc (knob) with artificial disulfide and N297G; human IgG1 Fc (hole) with artificial disulfide and N297G
B4: IL-12 Fc single mutant D126A (Fc-C-terminal fusion format of Example 1) (Fc fusion)
chain 1: T1 sequence 1 with D143A
chain 2: T1 sequence 2
notes: as for B3
B5: IL-12 Fc single mutant P127A (Fc-C-terminal fusion format of Example 1) (Fc fusion)
chain 1: T1 sequence 1 with P144A
chain 2: T1 sequence 2
notes: as for B3
B6: IL-12 Fc single mutant Y40A (Fc-C-terminal fusion format of Example 1) (Fc fusion, not shown: a dimerising Fc or GST)
chain 1: T1 sequence 1 with Y57A
chain 2: T1 sequence 2

Columns and labels:
[1] = molecular target: IL-12 receptor on HEK-Blue IL-12 cells (InvivoGen) (human, UniProt P42701 24-662; Q99665 24-862); test: cell-based or functional assay
[2] = molecular target: T1, wild-type IL-12 heterodimeric Fc fusion …; test: SPR as in Example 3; immobilized IL-12 Fc, IL-12Rbeta2 injected at 0.7-500 nM
Method: (§1) SPR measurements were recorded on a Biacore T100 at 20° C. in a buffer comprising 20 mM sodium phosphate pH 7.4, 150 mM NaCl and 0.05% Tween20. […] Following a 300 second dissociation phase, the remaining bound IL-12Rβ2 was washed off the chip using 50 mM Glycine pH 2.5, followed by 50 mM NaOH (30 second injections for each). Kinetic parameters were calculated using BIAevaluation software using a 1:1 Langmuir model, following subtraction of binding to a reference flow cell containing an isotype control antibody.

[3] = molecular target: T1, wild-type IL-12 heterodimeric Fc fusion …; test: SPR (Biacore T100, 20 °C), IL-12 Fc captured on protein A chip, IL-12Rβ2 domains 1-3 as analyte, 1:1 Langmuir model
Method: as §1

[4] = molecular target: B2; test: SPR (Biacore T100, 20 C); IL-12 Fc captured on a protein A chip (230 RU), IL-12Rbeta2 (domains 1-3) as analyte; 1:1 Langmuir model
Method: as §1

[5] = molecular target: B2; test: SPR (Biacore T100, 20 C); IL-12 Fc captured on a protein A chip (220 RU), IL-12Rbeta2 (domains 1-3) as analyte; 1:1 Langmuir model
Method: as §1

[6] = molecular target: B2; test: SPR (Biacore T100, 20 C); IL-12 Fc captured on a protein A chip (190 RU), IL-12Rbeta2 (domains 1-3) as analyte; 1:1 Langmuir model
Method: as §1

Binder: B1
- HEK-Blue IL-12 reporter assay, fold reduction in EC50 value [1]: ~16 fold (vs wild-type)

Binder: B2
- Kd [2]: 53.2 nM
- Kd [3]: 13.1 nM

Binder: B3
- Kd [4]: 130 nM

Binder: B4
- Kd [5]: 42.9 nM

Binder: B5
- HEK-Blue IL-12 reporter assay, fold reduction in potency [1]: ~2 fold (vs IL-12 Fc w.t.)
- Kd [6]: 44.3 nM

Binder: B6
- HEK-Blue IL-12 reporter assay, fold reduction in EC50 value [1]: ~17 fold (vs IL-12 Fc w.t.)
- HEK-Blue IL-12 reporter assay, fold reduction in potency [1]: ~29 fold (vs IL-12 Fc w.t.)
